Measured values published in patent publication US20230365684A1.

Tests used:
[1] = target: human CD33 on cells (MOLM-13, Kasumi-1, OCI-AML-3, Kasumi-3) (human) (UniProt P20138); test: flow cytometry on Kasumi-1 cells, 4 °C, serial dilutions of the antibody
[2] = target: human CD33 on cells (MOLM-13, Kasumi-1, OCI-AML-3, Kasumi-3) (human) (UniProt P20138); test: flow cytometry on MOLM-13 cells, 4 °C, serial dilutions of the antibody
[3] = target: human CD33 on cells (MOLM-13, Kasumi-1, OCI-AML-3, Kasumi-3) (human) (UniProt P20138); test: flow cytometry on OCI-AML-3 cells, 4 °C, serial dilutions of the antibody
[4] = target: human CD33 on cells (MOLM-13, Kasumi-1, OCI-AML-3, Kasumi-3) (human) (UniProt P20138); test: flow cytometry on MOLM-13 cells, 4 °C, detection with PE goat F(ab')2 anti-human IgG-Fc

Sequence of human CD33 on cells (MOLM-13, Kasumi-1, OCI-AML-3, Kasumi-3) (human) (P20138 18-364): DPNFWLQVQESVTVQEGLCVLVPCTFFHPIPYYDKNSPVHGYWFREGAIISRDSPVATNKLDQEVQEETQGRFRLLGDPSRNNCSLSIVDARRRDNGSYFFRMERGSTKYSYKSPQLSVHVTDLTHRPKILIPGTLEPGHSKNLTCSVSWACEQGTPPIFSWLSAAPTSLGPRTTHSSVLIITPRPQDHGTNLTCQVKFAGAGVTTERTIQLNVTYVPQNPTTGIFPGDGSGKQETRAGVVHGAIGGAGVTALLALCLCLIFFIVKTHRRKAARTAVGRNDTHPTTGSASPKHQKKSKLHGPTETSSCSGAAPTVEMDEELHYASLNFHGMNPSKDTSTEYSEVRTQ

B1: Lintuzumab (antibody, part only; not given: constant regions, V domains shown, not shown: another chain or arm of the molecule)
VH: QVQLVQSGAEVKKPGSSVKVSCKASGYTFTDYNMHWVRQAPGQGLEWIGYIYPYNGGTGYNQKFKSKATITADESTNTAYMELSSLRSEDTAVYYCARGRPAMDYWGQGTLVTVSS
VL: DIQMTQSPSSLSASVGDRVTITCRASESVDNYGISFMNWFQQKPGKAPKLLIYAASNQGSGVPSRFSGSGSGTDFTLTISSLQPDDFATYYCQQSKEVPWTFGQGTKVEIK
- EC50 [1]: 0.34 nM
- EC50 [2]: 0.31 nM
- EC50 [3]: 0.9 nM
- EC50 (read off the curve) [4]: 0.04 µg/mL
